According to patent US20250195629A1, “SITE-SPECIFIC BRAIN THERAPEUTICS” (William Marsh Rice University, priority 2023, published 2025):

B1: RLuc8.6: recombinant His-tagged luciferase, model protein enzyme converting coelenterazine into coelenteramide; CDS SEQ ID NO: 17 (protein)
chain: MRGSHHHHHHGMASMTGGQQMGRDLYDDDDKDPMASKVYDPEQRKRMITGPQWWARCKQMNVLDSFINYYDSEKHAENAVIFLHGNATSSYLWRHVVPHIEPVARCIIPDLIGMGKSGKSGNGSYRLLDHYKYLTAWFELLNLPKKIIFVGHDWGSALAFHYAYEHQDRIKAIVHMESVVDVIESWMGWPDIEEELALIKSEEGEKMVLENNFFVETLLPSKIMRKLEPEEFAAYLEPFKEKGEVRRPTLSWPREIPLVKGGKPDVVQIVRNYNAYLRASDDLPKLFIESDPGFFSNAIVEGAKKFPNTEFVKVKGLHFLQEDAPDEMGKYIKSFVERVLKNEQ
modifications: His tag; misc_feature 1..1032 Synthetic: RLuc8.6
B2: RLuc8.6-IKVAV: fusion of RLuc8.6 and ECM-mimicking peptide IKVAV (SEQ ID NO: 23) via GS linker; CDS SEQ ID NO: 18 (protein)
chain: MRGSHHHHHHGMASMTGGQQMGRDLYDDDDKDPMASKVYDPEQRKRMITGPQWWARCKQMNVLDSFINYYDSEKHAENAVIFLHGNATSSYLWRHVVPHIEPVARCIIPDLIGMGKSGKSGNGSYRLLDHYKYLTAWFELLNLPKKIIFVGHDWGSALAFHYAYEHQDRIKAIVHMESVVDVIESWMGWPDIEEELALIKSEEGEKMVLENNFFVETLLPSKIMRKLEPEEFAAYLEPFKEKGEVRRPTLSWPREIPLVKGGKPDVVQIVRNYNAYLRASDDLPKLFIESDPGFFSNAIVEGAKKFPNTEFVKVKGLHFLQEDAPDEMGKYIKSFVERVLKNEQGGSGSSGGSGGSGGSGIKVAV
modifications: misc_feature 1..1095 Synthetic: RLuc8.6-IKVAV

Columns and labels:
[1] = previously available approach; cited from earlier work
[2] = Immunohistochemical analysis of RLuc8.6 after FUS-BBBO delivery; type: in vivo, mouse; settings: 150 mg/kg i.v., FUS-BBBO 4 sites left striatum, 1 h post-delivery
Excerpt: FUS-BBBO—C57BL/6J male or female mice (12-18 weeks of age) were anaesthetized with 2.5% isoflurane in 1.5% O2 and shaved on top of skull using a trimmer. A catheter, made by a 30-gauge needle connected to PE10 tubing, was inserted into the tail vein, affixed in place using tissue glue and then flushed with 10 units (U) mL^−1 of heparin in sterile saline (0.9% NaCl). Subsequently, the mouse was mounted on the RK50 (FUS Instruments) stereotactic platform using the ear bars and bite bar/nose cone. A midline scalp incision was vertically made to expose the skull after disinfecting the site using three alternating scrubs of chlorhexidine scrub and chlorhexidine solution. The locations of Lambda and Bregma were registered in the RK50 software using the guild pointer. Next, sterile ultrasound gel was applied on the surface of skull before placing the ultrasound transducer in a tank, both of which were filled with degassed water. […]
Histological imaging—All histological images were obtained using a fluorescence microscope (BZ-X810, Keyence). To evaluate RLuc8.6 retention, as depicted in FIG. 2b and FIG. 3, we acquired fluorescence images of striatal sections using a ×4 objective in DAPI (nuclei) and far-red (RLuc8.6) channels. […]

[3] = In vivo bioluminescent imaging (BLI) of RLuc8.6 in the head region; set-up: species or system mouse
Excerpt: (§1) FUS-BBBO—C57BL/6J male or female mice (12-18 weeks of age) were anaesthetized with 2.5% isoflurane in 1.5% O2 and shaved on top of skull using a trimmer. A catheter, made by a 30-gauge needle connected to PE10 tubing, was inserted into the tail vein, affixed in place using tissue glue and then flushed with 10 units (U) mL^−1 of heparin in sterile saline (0.9% NaCl). Subsequently, the mouse was mounted on the RK50 (FUS Instruments) stereotactic platform using the ear bars and bite bar/nose cone. A midline scalp incision was vertically made to expose the skull after disinfecting the site using three alternating scrubs of chlorhexidine scrub and chlorhexidine solution. The locations of Lambda and Bregma were registered in the RK50 software using the guild pointer. Next, sterile ultrasound gel was applied on the surface of skull before placing the ultrasound transducer in a tank, both of which were filled with degassed water. The mice were then sequentially injected via tail vein with purified recombinant protein in PBS buffer and approximately 1.5×10^6 DEFINITY microbubbles (Lantheus) per gram of body weight diluted in sterile saline. Immediately after injections of protein and microbubbles, the mice were insonated using RK-50 FUS system with axial and lateral diameter of 5 mm and 1.2 mm, respectively.
In vivo BLI—Two groups of mice (n=7 mice for FUS+RLuc8.6 group and n=3 mice for FUS alone group) underwent FUS-BBBO targeting one site at left striatum immediately after i.v. injection of RLuc8.6 (2 mg/mL, 8 mg/kg) or equivalent volume of PBS buffer. The third group of mice (n=6) was injected intravenously with the same dose of RLuc8.6 without FUS-BBBO procedure. BLI was conducted 1 h, 24 h, 48 h and 96 h after FUS insonation with an IVIS spectrum imager (Perkin Elmer). […] The bioluminescence signal was quantified by calculating the average radiance (p/s/cm^2/sr) in the head region of view C imaging using the Living Image software (Caliper Life Sciences).

[4] = Ex vivo BLI of brain sections, retention of unmodified or engineered RLuc8.6; type: in vivo, mouse
Excerpt: as §1
Ex vivo analysis of engineered RLuc8.6—FUS was performed to target three sites in the left hemisphere of C57BL6J mice (n=5 mice per group) immediately after systemic administration of RLuc8.6 (20 mg/mL, 100 mg/kg) or engineered variant (20 mg/mL, 104 mg/kg) and microbubbles by tail vein injection. The dose of engineered RLuc8.6 was increased accordingly based on their molecular weight for injecting the same number of molecules as unmodified RLuc8.6. The control group (n=5 mice) was injected intravenously with the same dose of unmodified RLuc8.6 without FUS. The mice were euthanized using CO2 without perfusion at two time points (2-day and 7-day) after FUS-BBBO procedure. Immediately afterwards, the brains were extracted, washed with ˜20 mL PBS buffer in a 50 mL conical tube for 30 s, and then cut into 2 mm sections without olfactory bulb and brainstem using a coronal Slicer (Invitrogen). The sections were individually transferred into a 6-well glass bottom plate (Cellvis) filled with 2 mL PBS buffer. BLI was performed using an IVIS spectrum imager (Perkin Elmer) immediately after adding 1 mL dissolved CTZ (cat #303-INJ, Nanolight Technology) with a final concentration of 10 μM. The parameters used here were similar as in vivo BLI with is of exposure time and field of view C. The average radiance (p/s/cm^2/sr) of each brain section was quantified with the Living Image software (Caliper Life Sciences) and summed to compare the activity retention of RLuc8.6 among different groups.

[5] = Mouse body weight analysis; type: in vivo; set-up: key to Significance of body weight difference between day 0 and 3 days after systemic administration: ns (not significant); settings: for Weight loss: day 0 vs 2 days after injection, RLuc8.6 100 mg/kg, AADC-IKVAV 250 mg/kg
Description: To assess the potential impact of the RAID approach on the body weight of the mice involved in behavior analysis (n=11 mice for the FUS alone+L-DOPA group and n=14 mice for the FUS+AADC-IKVAV (SEQ ID NO: 23)+L-DOPA group), their body weight was recorded on a daily basis before and after FUS-BBBO administration. […] The body weight of the additional group of mice was also recorded in a similar manner; however, unintentionally four mice were omitted from weighing on the day following the AADC-IKVAV (SEQ ID NO: 23) injection. Similarly, the mouse body weight was recorded before and after the intravenous injection of unmodified or engineered RLuc8.6, which is related to the study presented in FIG. 5.

[6] = FUS-BBBO + protein i.v., RLuc8.6-IKVAV 104 mg/kg

| Molecule | time the drug lasts in the brain after FUS-BBBO delivery [1] | average fluorescence intensity of RLuc8.6 immunostaining, FUS target region vs untargeted contralateral site [2] | IVIS enzyme levels vs controls ([3]; 8 mg/kg i.v., from 24 hours after FUS-BBBO onwards) | bioluminescence signal averaged over the entire brain, FUS+RLuc8.6 vs RLuc8.6 alone without FUS ([3]; 8 mg/kg i.v., one FUS site left striatum, 1 h after FUS-BBBO, CTZ 3.5 mg/kg i.p.) | upper threshold of enzyme concentration increase within the targeted site vs untargeted controls ([3]; calculated from volume of single BBB opening site (1% of brain volume)) | enzyme function within the brain parenchyma ([4]; 7-day timepoint) | Significance of body weight difference between day 0 and 3 days after systemic administration ([5]; FUS-BBBO + protein i.v.) | weight loss on day 3 compared to day 0 ([5]; FUS-BBBO + protein i.v.) | Weight loss [5, 6] | Significance of body weight difference between day 0 and 3 days after systemic administration ([5]; protein i.v. alone without FUS) | Weight loss ([5]; protein i.v. alone without FUS) | mean activity improvement over unmodified RLuc8.6 ([4]; 2 days after FUS-BBBO, sum of average radiance in five sections) | bioluminescence vs RLuc8.6 alone control at 7 days ([4]; 7 days after FUS-BBBO) | level of bioluminescence vs control group without applying FUS ([4]; FUS-BBBO delivery, stated with FIG. 5e (7 days)) | duration of retention in the brain ([4]; after a single session of FUS-BBBO delivery) |
| --- | --- | --- | --- | --- | --- | --- | --- | --- | --- | --- | --- | --- | --- | --- | --- |
| NCCCC(=O)O [GABA] | approximately 100 minutes | – | – | – | – | – | – | – | – | – | – | – | – | – | – |
| B1 | – | significantly higher immunostaining signal | statistically indistinguishable from controls | 2.2(±0.3) fold | approximately 220 fold | remain functional | ns | no significant weight loss | 3.4±0.7% | ns | 2.1 ± 0.6% | – | – | – | – |
| B2 | – | – | – | – | – | – | ns | no significant weight loss | 3.2±0.8% | – | – | 2.3(±0.3) fold | significantly different | 113(±33) fold | 1 week |
